For test [1], the target named is T1, CRF2R.
T1 sequence (Q13324 whole entry, species assumed, looked up): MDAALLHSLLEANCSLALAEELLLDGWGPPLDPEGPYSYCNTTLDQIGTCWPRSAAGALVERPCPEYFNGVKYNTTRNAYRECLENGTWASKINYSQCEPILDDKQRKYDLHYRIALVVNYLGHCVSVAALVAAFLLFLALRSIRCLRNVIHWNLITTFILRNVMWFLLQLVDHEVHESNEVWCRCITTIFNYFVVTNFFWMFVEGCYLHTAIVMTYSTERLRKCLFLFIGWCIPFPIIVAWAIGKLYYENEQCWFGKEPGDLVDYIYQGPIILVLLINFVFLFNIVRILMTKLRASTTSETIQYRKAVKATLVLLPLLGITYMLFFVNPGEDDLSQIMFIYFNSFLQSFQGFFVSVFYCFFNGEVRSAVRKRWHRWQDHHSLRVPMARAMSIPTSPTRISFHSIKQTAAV
The test can be described thus: cell-based or functional assay.

The target of test [2] is CRF1R. The test can be described thus: cell-based or functional assay.

Ends that are not written are not given here.

24 molecules from patent US20030148958A1 (PROCTER AND GAMBLE, published 2003) can be followed below.
Throughout, for CRF1R Emax %: reference of the scale not given here.
Throughout, for CRF2R Emax %: reference of the scale not given here.

As for ZGPPISIDLPFQLLRKLIEIEKQEKEKQQAANNALLLATI (C-terminal amide) [SEQ ID NO 357], in test [1], the “CRF2R EC50” value was determined as 6.44 nM and the “CRF2R Emax %” value was determined as 100%. Further, in test [2], the “CRF1R EC50” value was determined as 331 nM and the “CRF1R Emax %” value was 100%.
On to ZGPPISIDLPFQLLRVLIEIEKQEKEKQQAANNALLLATI (C-terminal amide) [SEQ ID NO 361], for which, in test [1], the “CRF2R EC50” value was 6.37 nM and the “CRF2R Emax %” value came to 99%. For the same molecule, in test [2], the “CRF1R EC50” value was 149 nM and the “CRF1R Emax %” value was 100%.
For ZGPPISIDVPLQLLRKVIEIEKQEKEKQQAANNARLLDTI (C-terminal amide) [SEQ ID NO 380], in test [1], the “CRF2R EC50” value came to 19 nM and the “CRF2R Emax %” value was found to be 100%. Besides, in test [2], the “CRF1R EC50” value worked out at 1000 nM and the “CRF1R Emax %” value was found to be 16%.
Regarding ZGPPISIDLPFQLLRKAIEIEKQEKEKQQAANNALLLATI (C-terminal amide) [SEQ ID NO 364], in test [1], the “CRF2R EC50” value was 13.2 nM and the “CRF2R Emax %” value turned out to be 100%. Further, in test [2], the “CRF1R EC50” value was determined as 1000 nM and the “CRF1R Emax %” value was 27%.
As for ZGPPISIDVPYQLLRKVIEIEKQEKEKQQAANNARLLARI (C-terminal amide) [SEQ ID NO 375], in test [1], the “CRF2R EC50” value stood at 11.5 nM and the “CRF2R Emax %” value worked out at 100%. In test [2], the “CRF1R EC50” value was found to be 1000 nM and the “CRF1R Emax %” value came out at 22%.
Turning to ZGPPISIDLPFQLLRLLIEIEKQEKEKQQAANNALLLATI (C-terminal amide) [SEQ ID NO 360], in test [1], the “CRF2R EC50” value turned out to be 6.12 nM and the “CRF2R Emax %” value turned out to be 93%. In addition, in test [2], the “CRF1R EC50” value was determined as 157 nM and the “CRF1R Emax %” value stood at 100%.
As to ZGPPISIDLPFQLLRKAIEIEKQEKEKQQAANNALLLDTI (C-terminal amide) [SEQ ID NO 365], in test [1], the “CRF2R EC50” value worked out at 23.4 nM and the “CRF2R Emax %” value came out at 94%. Also, in test [2], the “CRF1R EC50” value was 1000 nM and the “CRF1R Emax %” value is 21%.
On the same counts, the results for ZGPPISIDLPFQLLREVIEIEKQEKEKQQAANNALLLATI (C-terminal amide) [SEQ ID NO 359] are 23.1 nM, 100%, 230 nM and 100%.
On to ZGPPISIDVPYQLLRKVIEIEKQEKEKQQAANNARLLDTI (C-terminal amide) [SEQ ID NO 374], for which, in test [1], the “CRF2R EC50” value came out at 15.8 nM and the “CRF2R Emax %” value was found to be 91%. For the same molecule, in test [2], the “CRF1R EC50” value came out at 1000 nM and the “CRF1R Emax %” value worked out at 11%.
Consider ZGPPISIDLPFQLLRKIIEIEKQEKEKQQAANNALLLATI (C-terminal amide) [SEQ ID NO 362], for which, in test [1], the “CRF2R EC50” value worked out at 4.39 nM and the “CRF2R Emax %” value came out at 100%. Moreover, in test [2], the “CRF1R EC50” value is 386 nM and the “CRF1R Emax %” value is 100%.
For the molecule ZGPPISIDVPYWLLRKVIEIEKQEKEKQQAANNARLLDTI (C-terminal amide) [SEQ ID NO 372], in test [1], the “CRF2R EC50” value amounted to 14.2 nM and the “CRF2R Emax %” value is 100%. In test [2], the “CRF1R EC50” value came to 1000 nM and the “CRF1R Emax %” value was 13%.
Regarding ZGPPISIDVPYHLLRKVIEIEKQEKEKQQAANNARLLDTI (C-terminal amide) [SEQ ID NO 376], in test [1], the “CRF2R EC50” value was found to be 52.5 nM and the “CRF2R Emax %” value worked out at 100%. Besides, in test [2], the “CRF1R EC50” value was 1000 nM and the “CRF1R Emax %” value amounted to 8%.
Turning to ZGPPISIDVPYWLLRKVIEIEKQEKEKQQAANNARLLARI (C-terminal amide) [SEQ ID NO 373], in test [1], the “CRF2R EC50” value came out at 11.5 nM and the “CRF2R Emax %” value amounted to 100%. In addition, in test [2], the “CRF1R EC50” value came to 1000 nM and the “CRF1R Emax %” value is 9%.
As to ZGPPISIDVPIYLLRKVIEIEKQEKEKQQAANNARLLARI (C-terminal amide) [SEQ ID NO 379], in test [1], the “CRF2R EC50” value amounted to 70.5 nM and the “CRF2R Emax %” value was 94%. In test [2], the “CRF1R EC50” value is 1000 nM and the “CRF1R Emax %” value turned out to be 8%.
Regarding ZGPPISIDVPYYLLRKVIEIEKQEKEKQQAANNARLLARI (C-terminal amide) [SEQ ID NO 378], in test [1], the “CRF2R EC50” value turned out to be 14.9 nM and the “CRF2R Emax %” value came out at 100%. Besides, in test [2], the “CRF1R EC50” value was found to be 1000 nM and the “CRF1R Emax %” value came out at 36%.
Regarding ZGPPISIDVPYHLLRKVIEIEKQEKEKQQAANNARLLARI (C-terminal amide) [SEQ ID NO 377], in test [1], the “CRF2R EC50” value is 19.2 nM and the “CRF2R Emax %” value turned out to be 83%. In addition, in test [2], the “CRF1R EC50” value is 1000 nM and the “CRF1R Emax %” value is 25%.
As to IVLSLDVPIHLLQILLEQARARAAREQATTNARILARV-NH2 [SEQ ID NO 371], in test [1], the “CRF2R EC50” value turned out to be 6.62 nM and the “CRF2R Emax %” value came out at 97%. Further, in test [2], the “CRF1R EC50” value came to 1000 nM and the “CRF1R Emax %” value stood at 22%.
In the case of IVLSLDVPIGLLQILLEQARHAHAHAHAHAQAHILAHV-NH2 [SEQ ID NO 369], in test [1], the “CRF2R EC50” value was found to be 100 nM and the “CRF2R Emax %” value was determined as 18%. Also, in test [2], the “CRF1R EC50” value was 1000 nM and the “CRF1R Emax %” value is 4%.
Turning to IVLSLDVPIGLLQILLEQARHAAAHAAAHAQAHILAHV-NH2 [SEQ ID NO 367], in test [1], the “CRF2R EC50” value came to 100 nM and the “CRF2R Emax %” value came to 18%. In test [2], the “CRF1R EC50” value came out at 1000 nM and the “CRF1R Emax %” value amounted to 6%.
As for IVLSLDVPIGLLQILLEQARARAAREQATTNARILARVM-NH2 [SEQ ID NO 368], in test [1], the “CRF2R EC50” value is 50.4 nM. In addition, the “CRF1R EC50” value in test [2] is 1000 nM.
For the molecule ZGPPISIDLPFQLLRKAIEIEKQEKEKQQATTNARLLDRV (C-terminal amide) [SEQ ID NO 363], in test [1], the “CRF2R EC50” value came out at 25.1 nM and the “CRF2R Emax %” value was 100%. In test [2], the “CRF1R EC50” value came out at 1000 nM and the “CRF1R Emax %” value stood at 20%.
For the molecule IVLSLDVPIGLLQILLEKAAAEAEAAAKAAQEQILAHV-NH2 [SEQ ID NO 366], in test [1], the “CRF2R EC50” value came out at 100 nM and the “CRF2R Emax %” value is 46%. Also, in test [2], the “CRF1R EC50” value was 1000 nM and the “CRF1R Emax %” value was found to be 9%.
On the same counts, the results for IVLSLDVSIGLLQILLEQARARAAREQATTNARILARV-NH2 [SEQ ID NO 370] are 51 nM, 75%, 1000 nM and 33%.
In the case of ZGPPISIDLPFQLLRILIEIEKQEKEKQQAANNALLLAT (C-terminal amide) [SEQ ID NO 358], in test [1], the “CRF2R EC50” value came to 5.56 nM and the “CRF2R Emax %” value came out at 100%. In test [2], the “CRF1R EC50” value was determined as 99 nM and the “CRF1R Emax %” value amounted to 100%.
